Positions of bridges follow the written chain, without caps; N, C: chain ends. No end group written: not given here.
T1: hu-IL-2Rβ subunit (human, UniProt P14784 27-240, limits assumed)
T1 construct: also called human interleukin-2 receptor subunit β; CD122
T1 sequence (looked up): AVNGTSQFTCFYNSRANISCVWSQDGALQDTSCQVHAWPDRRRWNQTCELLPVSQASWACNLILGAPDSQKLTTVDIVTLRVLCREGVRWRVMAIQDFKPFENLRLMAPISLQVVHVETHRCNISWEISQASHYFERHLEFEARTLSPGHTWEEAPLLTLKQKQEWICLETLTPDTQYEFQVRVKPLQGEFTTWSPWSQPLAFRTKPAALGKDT


biological target: T1, hu-IL-2Rβ subunit; assay: phage ELISA competition assay

IC50, < 100 µM:
QTKLEGWYPCWMAQLGELCDLD [SEQ ID NO 104]
EPRWYPCWMAQMGELCDMEMSD [SEQ ID NO 435]
RLVYDCLFAQVGDLCEVIS [SEQ ID NO 438]
WSPCWMASLGDLCDLEETRQTE [SEQ ID NO 418]
MGDSSSWFPCWMAQLGELCDME [SEQ ID NO 459]
WWPCWIADLGELCDLEGPPRGR [SEQ ID NO 453]
TGEWWPCWVAEVGELCDLERGP (not fully specified (bridges); cysteine pairing not given here) [SEQ ID NO 441]
WWPCWMAQLGEMCDLEYPYVPG [SEQ ID NO 103]
AQVWYPCWLAKVGELCDLDQWN [SEQ ID NO 456]
WWPCWIAQVGELCDLDGPGRPT (disulfide 4-13 (inferred)) [SEQ ID NO 437]
VASERFYPCWIARLGELCDVE (disulfide 9-18 (inferred)) [SEQ ID NO 414]
SQRWYPCWVAHLGELCDLEGVV [SEQ ID NO 432]
NVTYTQWFPCWLARLGELCDLV [SEQ ID NO 407]
WYPCWIAKLGEVCDLDQGTTRQ [SEQ ID NO 415]
WLPCWLAPLGDLCDMDMSAVMN [SEQ ID NO 422]
RPPWYPCWMARLGEVCDMDIML [SEQ ID NO 431]
WYPCEFAQLGELCDLLPFPYPA [SEQ ID NO 449]
VPRANAWHPCWMAQLGELCDLE [SEQ ID NO 106]
VDEFYPCSMAGLGELCDLERQN [SEQ ID NO 429]
WWPCWVAKLGELCDLEGDASRV [SEQ ID NO 448]
WWPCWIAQVGELCDLEEESRES [SEQ ID NO 451]
LQIRKLWACRIDLVGPFCLL [SEQ ID NO 444]
ARGEYRWFPCWMARLGELCDLE [SEQ ID NO 410]
AEYSGRYDCYIAKVGELCDI [SEQ ID NO 445]
FYPCWAAHLGDLCDLEYQEAGP [SEQ ID NO 421]
GRQQKGWYPCWLAQLGELCDME [SEQ ID NO 107]
WTPCWIAQLGELCDLEGRHGTV [SEQ ID NO 419]
MTDRAFWNPCWVARLGELCDLD [SEQ ID NO 406]
ARTQGWYDCLFAQVGELCDL [SEQ ID NO 442]
WYPCWIAQVGELCDLDEVSHGR [SEQ ID NO 440]
NRWWHPCWMARVGELCDLEPDA [SEQ ID NO 447]
ARTWWPCWRAKLGELCDLVVPE [SEQ ID NO 427]
WRILWMQQCWRSHVVNQCAL (not fully specified (bridges); cysteine pairing not given here) [SEQ ID NO 439]
AMARRYLPCWIAKLGELCELD (disulfide 9-18 (inferred)) [SEQ ID NO 409]
WFPCWMAKVGDLCDVDEHQDPS [SEQ ID NO 458]
KGSWQPCWFAKLGELCDLHPTS [SEQ ID NO 433]
WYPCWRAQLGELCDLVDLGSHL (disulfide 4-13 (inferred)) [SEQ ID NO 417]
FRVSRDWFPCWMAQLGEVCDLE (disulfide 10-19 (inferred)) [SEQ ID NO 412]
QTWYLPCWMAKLGELCDLGERD [SEQ ID NO 434]
SYMHDCFMAQVGDLCDRFIS [SEQ ID NO 450]
CYMHDCFMAQVGDLCDRFIS [SEQ ID NO 497]
TEMWYPCWMAYQGELCDLDMTY [SEQ ID NO 426]
SWRFLWQDCGRAHVGELCDL [SEQ ID NO 446]
WGGRYWCWMAKLGDLCDLEDEW [SEQ ID NO 436]
FGGKMDWYPCWIANLGELCDLK [SEQ ID NO 457]
WGRKEQWLPCWKAQLGELCDLE [SEQ ID NO 105]
EISNWFLDCMFADVGDLCDL [SEQ ID NO 455]
KWAWNPCYIARLGELCDLVEPE [SEQ ID NO 452]
PTLITWYDCLFAEVGELCDM [SEQ ID NO 454]
WRPCWMAHLGDLCDLEMANENP [SEQ ID NO 423]
YLERSRWYPCFIAQLGELCDLE [SEQ ID NO 411]
LPCWIAQLGDLCDLEPEPSPE [SEQ ID NO 420]
AWDWYPCSVAALGEICDLDIQD [SEQ ID NO 430]
IERAWEWRPCWLASVGELCDLE [SEQ ID NO 413]
WYPCWLAHLGELCDLDWKGRND [SEQ ID NO 416]
WYPCWLAQLGEVCDLDDGGGVF [SEQ ID NO 424]
FHPCWRALLGELCDLETALGPS [SEQ ID NO 443]
HQGFYSCRLARLGELCDLDTGW [SEQ ID NO 428]
VRTRIWYPCWSAQLGELCDLD [SEQ ID NO 408]

Reference: patent US20240101959A1, “USE OF IL-2R-BETA-GAMMA AGONIST PEPTIDES IN CELL MANUFACTURING” (MEDIKINE, INC., priority 2022, published 2024)
